Measurements taken from paper PMC5395944.

Target: PglK-E510Q (C. jejuni) (UniProt Q0P9C4)
Experiment: crystal structure

Substance: PglK-E510Q (from UniProt Q0P9C4) (natural protein)
- stoichiometry N: 2
